{"source": "paper PMC7841792", "proteins": {"B1": {"name": "lactate oxidase (LOX, EC 1.1.3.2) (Aerococcus viridans ATCC 11563 = CCUG 4311) (protein)", "chain": "MNNNDIEYNAPSEIKYIDVVNTYDLEEEASKVVPHGGFNYIAGASGDEWTKRANDRAWKHKLLYPRLAQDVEAPDTSTEILGHKIKAPFIMAPIAAHGLAHTTKEAGTARAVSEFGTIMSISAYSGATFEEISEGLNGGPRWFQIYMAKDDQQNRDILDEAKSDGATAIILTADSTVSGNRDRDVKNKFVYPFGMPIVQRYLRGTAEGMSLNNIYGASKQKISPRDIEEIAGHSGLPVFVKGIQHPEDADMAIKRGASGIWVSNHGARQLYEAPGSFDTLPAIAERVNKRVPIVFDSGVRRGEHVAKALASGADVVALGRPVLFGLALGGWQGAYSVLDYFQKDLTRVMQLTGSQNVEDLKGLDLFDNPYGYEY"}}, "substrate": "C[C@H](O)C(=O)O", "assay": "purified protein", "settings": "20 mM HEPES pH 7.4, 50 μM Ampliflu Red, 0.1 U/mL HRP, mean ± SEM, n = 3, lactate enantiomer not given"}
{"protein": "B1", "values": [{"measurement": "Km", "result": "1620 ± 480", "unit": "µM"}, {"measurement": "Vmax", "result": 22, "unit": "µmol/min/mg"}]}
